In patent publication US20220378949A1, “NEUROTROPHIN RECEPTOR BINDING CONJUGATE COMPOSITIONS, METHODS OF USE AND METHODS OF MAKING THEREOF” (priority 2019, published 2022):

Key:
[1] = system: superior cervical ganglia (SCG) neurons; assay: Retrograde axonal transport of 800-rhNGF in Xona microfluidic chambers, LI-COR Odyssey imaging; format: cell-based, rat; settings: 30 ng/mL at distal axons, 48 hours
From the text: (§1) Increasing conjugation leads to decreased protein conjugate solubility. A construct where the active agent has a greater molecular weight and less hydrophilic Dyomics DY-800 Near InfraRed (NIR) dye was attached directly to recombinant human NGF (rhNGF) (FIG. 2). In subsequent studies, we purified DAR sub-species using a (Waters column) reverse phase HPLC (RP-HPLC). […] Cultures were maintained until the axons extended through the channels in the microfluidic chambers to the side without cells plated. FIG. 2B depicts 800-rhNGF, 30 ng/mL was added to the wells where the terminal (distal) axons had extended. 48 hours after addition of 800-rhNGF to distal ends in left chambers, chambers were imaged on a LI-COR Odyssey scanner. […] FIGS. 2C and 2D depict brightfield images of wells containing cell bodies, showing improved visualization of cell clumps for comparison to images containing 800 NIR cell bodies. Neuronal Survival Confirms TrkB Binding Activity is Intact after Synthetic Manipulation.

[2] = administered sub-cutaneously (SQ); cited from earlier work
[3] = Stability of rhNGF in plasma; format: in vitro ADME; settings: 37° C.
From the text: As an example of an intracellularly active small molecule compound (SMC), the glucocorticoid fluocinolone acetonide (FA) was conjugated using a heterobifunctional linker to rhNGF and rhBDNF, both of which constructs exerted analgesic (anti-inflammatory) activity in vivo. Dorsal Root Ganglia (DRG) in diseases of the peripheral nervous system (PNS) play a fundamental role in chronic pain generally. NGF and BDNF localize due to their selectivity for distinct populations of peripheral neurons by binding to TrkA and TrkB expressed largely in nociceptors and proprioceptors, respectively. In treating forms of pain in which the DRG are involved, either NGF and/or BDNF should deliver intracellularly active FA by axonal transport to subpopulations of sensory neuron cell bodies in DRG and via their central synaptic terminals, into the dorsal horn of the spinal cord. Since TrkB is highly expressed in the neurofilament-1-expressing subpopulation of low-threshold mechanosensory neurons in the DRG, peripherally injected BDNF should deliver FA to the DRG. In treating pain, FA may alter neuronal excitability to be released or diffuse, acting on nearby inflammatory cells e.g. microglia, astrocytes, or satellite glia. rhNGF is stable in plasma for up to 4 days at 37° C.

TrkA receptors = target: T1, TrkA receptors (Rattus norvegicus, UniProt P35739); assay: Uptake and retrograde transport of fluorescent NGF in compartmented cultures of SCG neurons, competition with unlabelled NGF; format: cell-based; settings: for Uptake of fluorescent NGF at distal ends of neurons (TrkA-mediated endocytosis): distal axon compartments, SCG neurons
T1 construct: In vitro systems that use primary neurons express Trk receptors on distal ends were used; endogenous in cells
Description: Confirm Trk receptor binding. […] Receptor binding activity where up to 100× unmodified mNGF is co-administered with the Trk binding agent was determined. 488-mNGF (FIG. 1A) is shown in cell bodies, after binding to TrkA, endocytosis and transport to the central chamber of the in vitro system. In FIG. 1B, TrkA was confirmed here by adding 1000 ng/ml unmodified mNGF to compete with 100 ng/ml 488-mNGF for the same TrkA receptors. FIG. 1C: Neurons in compartmented cultures were given approximately 10 ng/mL fNGF (as determined by neuronal survival bioassay), or 10 ng/mL fNGF+100× excess unlabelled NFG (1000 ng/mL) in the distal axon compartments. 24 hours later fluorescence images of the cell bodies were obtained (FIG. 1C). […] Alexa Fluor requirement for DAR<4 per mouse NGF monomer. Fluorescent dye Alexa Fluor 488, which due to its size and hydrophobicity is attached to NGF without using a spacer of any length binds to TrkA, is endocytosed after binding, and is transported retrogradely to the neuronal cell body. In FIG. 4, we show in vitro results for a “mixed DAR” 800-rhNGF of 1.64 which is expressed as an average of 1-4 dye molecules per monomer using standard analytical methods mass spectroscopy (MS) or high performance liquid chromatography (HPLC), in each case where the NT involved is a dimer. […] Survival. […] SGC neurons were harvested from E-21 Sprague Dawley rat pups.

[4] = system: superior cervical ganglia (SCG) neurons; assay: Neuronal survival assay in primary superior cervical ganglia neurons (compartmented cultures / microfluidic devices); format: cell-based, rat; settings: FIG. 4 and FIG. 1C
Description: In vitro systems that use primary neurons express Trk receptors on distal ends were used so that both survival and Trk binding activity may be assessed following synthetic manipulation in producing conjugates.
Confirm Trk receptor binding. […] Receptor binding activity where up to 100× unmodified mNGF is co-administered with the Trk binding agent was determined. […] FIG. 1C: Neurons in compartmented cultures were given approximately 10 ng/mL fNGF (as determined by neuronal survival bioassay), or 10 ng/mL fNGF+100× excess unlabelled NFG (1000 ng/mL) in the distal axon compartments. 24 hours later fluorescence images of the cell bodies were obtained (FIG. 1C). […] Survival. […] SGC neurons were harvested from E-21 Sprague Dawley rat pups.
DAR analytics were calculated using Reverse Phase High Performance Liquid Chromatography (RP-HPLC) and/or mass spectroscopy (MS). […] (FIG. 5)

[5] = system: Retinal Ganglion Cells (RGCs); assay: Neuronal survival of primary Retinal Ganglion Cells with labeled rhBDNF (TrkB binding intact); format: cell-based, rat
Description: Labeled BDNF test articles, either 800-rhBDNF or FA-rhBDNF, were also assessed to as to whether the compositions would sustain neuronal survival by plating conjugates in Retinal Ganglion Cells (RGCs). RGCs were isolated from P6 rats by sequential immune-panning. Retinas are isolated and enzymatically digested by papain followed by mechanical dissociation into a single-cell suspension. Cells are negatively panned to remove macrophages and other nonspecifically adhering cells and then positively panned for RGCs using the Thy1.1 T11D7 hybridoma supernatant.
as §1
High Performance Liquid Chromatography and mass spectrometry was used to quantify the number of dye molecules attached or crosslinked to rhBDNF (i.e., the ratio of fluorescent dye in the 800 region to rhBDNF).

[6] = average ratio of about 3.1 per monomer

T1 sequence (P35739 33-799): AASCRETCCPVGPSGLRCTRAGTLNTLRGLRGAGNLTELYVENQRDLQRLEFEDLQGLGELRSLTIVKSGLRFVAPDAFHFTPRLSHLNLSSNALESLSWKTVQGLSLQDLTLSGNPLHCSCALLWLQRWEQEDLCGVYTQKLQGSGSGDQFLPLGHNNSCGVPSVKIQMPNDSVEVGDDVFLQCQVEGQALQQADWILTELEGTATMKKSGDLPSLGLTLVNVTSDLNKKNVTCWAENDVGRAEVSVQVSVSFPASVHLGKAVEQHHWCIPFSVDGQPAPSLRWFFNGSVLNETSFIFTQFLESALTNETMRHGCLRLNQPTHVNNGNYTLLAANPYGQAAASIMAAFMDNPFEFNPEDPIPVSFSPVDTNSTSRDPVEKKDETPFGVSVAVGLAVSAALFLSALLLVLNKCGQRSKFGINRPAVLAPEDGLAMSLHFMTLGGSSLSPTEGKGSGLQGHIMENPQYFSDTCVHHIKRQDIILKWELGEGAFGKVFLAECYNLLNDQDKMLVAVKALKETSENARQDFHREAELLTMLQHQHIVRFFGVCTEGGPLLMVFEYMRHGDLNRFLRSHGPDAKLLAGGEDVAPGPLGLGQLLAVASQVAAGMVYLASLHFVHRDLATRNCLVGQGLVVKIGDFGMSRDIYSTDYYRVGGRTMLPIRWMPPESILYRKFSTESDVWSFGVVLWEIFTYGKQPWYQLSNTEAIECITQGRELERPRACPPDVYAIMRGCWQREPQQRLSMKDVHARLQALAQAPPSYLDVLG

800-rhNGF: Dyomics DY-800 Near InfraRed (NIR) dye attached directly to recombinant human NGF (rhNGF)
Retrograde transport to cell bodies (800 NIR labelled cell bodies visualized) [1]: retrogradedly transported

rhNGF: recombinant human NGF (nerve growth factor)
Maximum Tolerated Dose (MTD) [2]: 1 µg/kg | Stability in plasma (time stable) [3]: up to 4 days

B1: 488-mNGF: fluorescent dye Alexa Fluor 488 attached to murine NGF (conjugate, UniProt P01139 122-241, looked up)
Beta-nerve growth factor: SSTHPVFHMGEFSVCDSVSVWVGDKTTATDIKGKEVTVLAEVNINNSVFRQYFFETKCRASNPVESGCRGIDSKHWNSYCTTTHTFVKALTTDEKQAAWRFIRIDTACVCVLSRKATRRG
modifications: Alexa Fluor 488 dye
notes: fluorescent dye Alexa Fluor 488 attached to murine NGF
Accumulation of fluorescence in the cell bodies with 100× excess unlabelled NGF (TrkA receptors; 10 ng/mL fNGF + 1000 ng/mL unlabelled NGF in distal axon compartments, 24 hours): effectively inhibited | Uptake of fluorescent NGF at distal ends of neurons (TrkA-mediated endocytosis) (TrkA receptors): endocytosed at the distal ends | Uptake of fluorescent NGF at distal ends of neurons (TrkA-mediated endocytosis) (TrkA receptors; listed as fNGF): specific, TrkA receptor-mediated process | Survival of neurons [4]: sustained the survival of neurons

B2: 800-rhBDNF: NIR dye in the 800 region directly attached to rhBDNF (conjugate, UniProt P23560 19-247, looked up)
Neurotrophic factor BDNF …: APMKEANIRGQGGLAYPGVRTHGTLESVNGPKAGSRGLTSLADTFEHVIEELLDEDQKVRPNEENNKDADLYTSRVMLSSQVPLEPPLLFLLEEYKNYLDAANMSMRVRRHSDPARRGELSVCDSISEWVTAADKKTAVDMSGGTVTVLEKVPVSKGQLKQYFYETKCNPMGYTKEGCRGIDKRHWNSQCRTTQSYVRALTMDSKKRIGWRFIRIDTSCVCTLTIKRGR
modifications: NIR 800 dye
notes: NIR dye in the 800 region directly attached to rhBDNF
Neuronal survival in primary neurons of Retinal Ganglion Cells ([5]; FIG. 3): sustained neuronal survival | Intraneuronal uptake [5, 6]: intraneuronal uptake | Trk binding [5, 6]: Trk binding
